Tests used:
Assay in all cases: SPR, antibody captured, C2 as analyte;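 note: biacore SPR at 37 °C, anti-C2 mAbs captured via goat anti-human IgG on CM5 chips, double-referenced sensorgrams fit to a 1:1 kinetic or steady-state model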
human C2 D282A = target: T1, human C2 D282A (human, UniProt P06681 21-752)
T1 sequence: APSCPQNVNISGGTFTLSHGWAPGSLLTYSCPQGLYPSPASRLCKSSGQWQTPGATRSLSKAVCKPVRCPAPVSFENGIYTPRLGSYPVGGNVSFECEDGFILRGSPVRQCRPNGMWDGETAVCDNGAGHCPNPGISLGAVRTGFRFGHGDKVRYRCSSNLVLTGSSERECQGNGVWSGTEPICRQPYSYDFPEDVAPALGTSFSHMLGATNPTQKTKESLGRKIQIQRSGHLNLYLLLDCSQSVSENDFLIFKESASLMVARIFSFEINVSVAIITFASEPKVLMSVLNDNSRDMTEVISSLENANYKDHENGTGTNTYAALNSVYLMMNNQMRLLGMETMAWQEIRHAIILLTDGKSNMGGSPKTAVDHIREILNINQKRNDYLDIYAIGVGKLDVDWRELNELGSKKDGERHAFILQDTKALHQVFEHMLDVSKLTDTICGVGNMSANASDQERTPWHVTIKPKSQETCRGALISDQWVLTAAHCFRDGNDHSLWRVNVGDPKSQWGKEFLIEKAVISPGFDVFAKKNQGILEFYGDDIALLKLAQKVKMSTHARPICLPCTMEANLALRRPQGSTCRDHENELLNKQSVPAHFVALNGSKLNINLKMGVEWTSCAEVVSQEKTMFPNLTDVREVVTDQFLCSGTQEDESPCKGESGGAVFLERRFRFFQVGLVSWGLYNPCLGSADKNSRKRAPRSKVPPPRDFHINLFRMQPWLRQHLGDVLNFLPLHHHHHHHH
Method: (§1) Surface plasmon resonance (SPR, Biacore) was used for all binding affinity analyses. In brief, goat anti-human IgG was directly immobilised onto the carboxymethyl dextran surface of CM5 sensorchips to approximately 12,000 RU using standard NHS/EDC chemistry at pH 5. The immobilised antibody surface was pre-conditioned with ten injections of polyclonal human IgG (Privigen 60 s) prepared at 1 μg/mL. Ligands (anti-C2 mAbs) were captured at the beginning of each cycle as described below. An adjacent spot or flow cell in which only Polyclonal IgG was capture was used as a reference surface. The goat anti-human IgG Fc antibody surface was regenerate in 100 mM H3PO4, injected for 45 seconds at the end of each cycle. Experiments were performed at 37° C. and the flow rate of each experiment was kept constant at 30 μL/min.
(§2) Sensogram data was double-referenced against a reference anti-IgG surface (i.e. minus anti-C2 mAb) and blank buffer injections obtained within each experiment. The binding data was fit to 1:1 (kinetic or steady-state) model using local Rmax and null refraction index (RI=0) when appropriate. Buffers and solutions were filtered (0.22 μm) prior to use.

human C2 L439A = target: T2, human C2 L439A (human, UniProt P06681 21-752)
T2 sequence: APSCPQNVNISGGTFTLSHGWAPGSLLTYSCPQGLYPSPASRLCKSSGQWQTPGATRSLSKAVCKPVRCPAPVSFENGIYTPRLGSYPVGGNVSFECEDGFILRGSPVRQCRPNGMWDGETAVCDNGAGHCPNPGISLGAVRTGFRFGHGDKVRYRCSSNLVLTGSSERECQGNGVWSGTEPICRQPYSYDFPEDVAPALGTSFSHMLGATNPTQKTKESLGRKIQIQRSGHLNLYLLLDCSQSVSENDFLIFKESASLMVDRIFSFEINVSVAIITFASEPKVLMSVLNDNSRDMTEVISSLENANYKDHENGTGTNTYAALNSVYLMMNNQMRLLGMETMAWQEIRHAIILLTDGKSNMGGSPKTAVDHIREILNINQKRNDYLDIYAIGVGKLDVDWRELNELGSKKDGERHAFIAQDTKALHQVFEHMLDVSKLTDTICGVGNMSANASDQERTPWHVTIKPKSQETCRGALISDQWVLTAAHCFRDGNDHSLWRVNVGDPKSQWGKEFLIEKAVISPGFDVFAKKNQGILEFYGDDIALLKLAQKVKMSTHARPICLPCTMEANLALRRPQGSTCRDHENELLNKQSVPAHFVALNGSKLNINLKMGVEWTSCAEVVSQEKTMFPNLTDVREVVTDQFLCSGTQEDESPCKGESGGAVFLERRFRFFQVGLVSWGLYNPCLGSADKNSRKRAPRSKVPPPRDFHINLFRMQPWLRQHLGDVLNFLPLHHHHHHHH
Method: as §1, §2

human C2 D441A = target: T3, human C2 D441A (human, UniProt P06681 21-752)
T3 sequence: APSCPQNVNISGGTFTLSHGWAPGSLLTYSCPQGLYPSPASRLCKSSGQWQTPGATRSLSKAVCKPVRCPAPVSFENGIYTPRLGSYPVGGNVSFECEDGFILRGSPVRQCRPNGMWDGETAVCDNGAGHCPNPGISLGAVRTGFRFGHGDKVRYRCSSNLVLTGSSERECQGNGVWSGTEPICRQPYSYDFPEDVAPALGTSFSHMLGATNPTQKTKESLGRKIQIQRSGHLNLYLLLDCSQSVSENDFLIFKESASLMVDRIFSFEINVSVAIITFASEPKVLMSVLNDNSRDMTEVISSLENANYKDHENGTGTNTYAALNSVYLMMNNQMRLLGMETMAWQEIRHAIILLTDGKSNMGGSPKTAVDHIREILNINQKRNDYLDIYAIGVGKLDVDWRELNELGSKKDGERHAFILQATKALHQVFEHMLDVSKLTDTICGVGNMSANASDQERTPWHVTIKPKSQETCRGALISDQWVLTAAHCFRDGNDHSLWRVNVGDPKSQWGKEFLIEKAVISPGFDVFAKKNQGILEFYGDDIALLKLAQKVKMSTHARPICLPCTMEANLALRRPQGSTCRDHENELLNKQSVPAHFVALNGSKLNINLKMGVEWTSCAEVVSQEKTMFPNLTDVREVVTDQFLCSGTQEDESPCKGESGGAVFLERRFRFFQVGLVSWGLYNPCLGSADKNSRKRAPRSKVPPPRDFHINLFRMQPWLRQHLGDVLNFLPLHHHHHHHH
Method: as §1, §2

human C2 T491A = target: T4, human C2 T491A (human, UniProt P06681 21-752)
T4 sequence: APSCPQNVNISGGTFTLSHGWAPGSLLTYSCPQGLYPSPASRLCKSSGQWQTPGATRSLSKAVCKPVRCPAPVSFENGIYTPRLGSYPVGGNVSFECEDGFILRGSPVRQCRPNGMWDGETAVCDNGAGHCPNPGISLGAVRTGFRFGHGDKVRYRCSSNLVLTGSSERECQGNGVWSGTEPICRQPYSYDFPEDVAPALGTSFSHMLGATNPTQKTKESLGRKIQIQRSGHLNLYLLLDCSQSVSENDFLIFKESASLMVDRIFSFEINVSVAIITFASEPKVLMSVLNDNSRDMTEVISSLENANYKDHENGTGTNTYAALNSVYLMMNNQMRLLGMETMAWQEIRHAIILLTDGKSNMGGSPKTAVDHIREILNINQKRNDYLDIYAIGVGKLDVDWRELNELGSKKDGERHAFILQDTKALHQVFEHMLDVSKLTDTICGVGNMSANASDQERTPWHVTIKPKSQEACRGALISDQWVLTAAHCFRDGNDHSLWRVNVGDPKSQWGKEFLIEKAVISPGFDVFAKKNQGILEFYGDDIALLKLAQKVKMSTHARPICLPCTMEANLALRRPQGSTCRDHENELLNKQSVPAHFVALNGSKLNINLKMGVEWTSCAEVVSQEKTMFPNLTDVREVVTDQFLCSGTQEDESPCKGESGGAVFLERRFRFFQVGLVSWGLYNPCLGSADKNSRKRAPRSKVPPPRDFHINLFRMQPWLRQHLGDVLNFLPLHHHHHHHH
Method: as §1, §2

B1: RF16-226 (antibody, human IgG4 S228P, lambda)
heavy: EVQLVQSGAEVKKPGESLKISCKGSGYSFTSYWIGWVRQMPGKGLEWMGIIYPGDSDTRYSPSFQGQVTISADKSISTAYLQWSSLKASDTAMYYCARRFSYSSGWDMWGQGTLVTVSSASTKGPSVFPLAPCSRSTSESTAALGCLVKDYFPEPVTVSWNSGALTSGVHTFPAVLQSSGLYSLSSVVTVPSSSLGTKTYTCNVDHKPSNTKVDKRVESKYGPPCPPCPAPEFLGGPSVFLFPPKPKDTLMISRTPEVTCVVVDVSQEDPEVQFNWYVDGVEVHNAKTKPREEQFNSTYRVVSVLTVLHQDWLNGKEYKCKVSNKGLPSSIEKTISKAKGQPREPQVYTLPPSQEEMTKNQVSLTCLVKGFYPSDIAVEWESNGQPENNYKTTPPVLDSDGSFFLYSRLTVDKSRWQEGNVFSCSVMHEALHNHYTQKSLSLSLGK
light: SYELTQPPSVSVSPGQTARITCSGDALTSKYVAWYQQKSGLAPLLVIYEDTRRPSGIPAKFSGSSSGSVATLTISGAHGDDEADYYCYSTDASGHQRVFGGGTKLTVLSQPKAAPSVTLFPPSSEELQANKATLVCLISDFYPGAVTVAWKADGSPVKAGVETTKPSKQSNNKYAASSYLSLTPEQWKSHRSYSCQVTHEGSTVEKTVAPTECS
notes: pH-dependent anti-C2 antibody from a phage display library; also called WT
Binder B1 has a Kd (human C2 D282A) of 8.9 nM, a Kd (human C2 L439A) of 118 nM and a Kd (human C2 D441A) of 63.9 nM. For the same binder, the Kd (human C2 T491A) was 15.5 nM.
